Results taken from patent US20220275098A1 (NANTBIO, published 2022).
Changes are numbered by the printed parent chain.

T1: CD30 (analyte in SPR) (UniProt P28908 19-379, limits assumed)
T1 construct: also called Cluster of Differentiation 30; Ki-1
T1 sequence (looked up): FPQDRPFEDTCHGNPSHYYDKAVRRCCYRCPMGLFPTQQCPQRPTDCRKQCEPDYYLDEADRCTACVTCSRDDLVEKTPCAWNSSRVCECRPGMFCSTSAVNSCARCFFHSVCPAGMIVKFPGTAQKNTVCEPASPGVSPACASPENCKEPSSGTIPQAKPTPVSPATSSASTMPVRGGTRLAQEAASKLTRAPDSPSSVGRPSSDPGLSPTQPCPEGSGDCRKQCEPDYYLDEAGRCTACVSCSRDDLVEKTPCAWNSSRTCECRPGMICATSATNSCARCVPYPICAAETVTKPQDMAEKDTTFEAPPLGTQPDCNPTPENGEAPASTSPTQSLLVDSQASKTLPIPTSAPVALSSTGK

B1: anti-CD30 IgG1 (52-2) (antibody, V domains shown)
VH: EVQLVESGGGLVQPGGSLRLSCAASGFTFSSYYMHWVRQAPGKGLEWVSAISWSGGSTYYADSVKGRFTISRDNSKNTLYLQMNSLRAEDTAVYYCARDRFMPFIPNTLGFDVWGQGTLVTVSS
VL: DIQMTQSPSSLSASVGDRVTITCQASQDISNYLNWYQQKPGKAPKLLIYVASNLETGVPSRFSGSGSGTDFTFTISSLQPEDIATYYCQQDADVPLTFGQGTKVEIK
notes: also called aCD30 clone 52-2 IgG1
B2: anti-CD30 IgG1 (52-38) (antibody, V domains shown)
VH: B1 VH with Y33W, G56D, F101S, M102A, P103T, F104W, I105Y, P106Y, N107L, T108G
VL: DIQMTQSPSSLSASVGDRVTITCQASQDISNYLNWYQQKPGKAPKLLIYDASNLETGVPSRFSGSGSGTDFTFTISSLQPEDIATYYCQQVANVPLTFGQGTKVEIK
notes: also called aCD30 clone 52-38 IgG1
B3: anti-CD30 IgG1 (52-5) (antibody, V domains shown)
VH: B1 VH
VL: B1 VL with V50D
notes: also called aCD30 clone 52-5 IgG1

What follows are binders tested against T1, CD30 (analyte in SPR) (assay: SPR, 25° C. pH 7.4, IgG1 captured on chip, CD30 as analyte, average value).
From the text: Using the VH and VL domains as noted above, the inventors prepared various CD30 binding constructs, and exemplary results for scFv and IgG1 constructs are shown below.

Kd [nM]	Binder
3	B1
2.5	B2
22.3	B3
